Among the data in publication PMC3435397 are stoichiometry N values, retold here.

Test [1] concerns the target B. subtilis S72N TRAP (trp RNA-binding attenuation protein, S72N mutant) (B. subtilis) (UniProt P19466). As to the kind of experiment: crystal structure; hanging drop vapor diffusion at 18°C; protein in 10 mM triethanolamine pH 8.0, 100 mM NaCl, 15 mM L-tryptophan, 33.5 mg/ml; six subunits in the asymmetric unit, 12-mer generated by the crystallographic 2-fold axis of P2(1)2(1)2.

Test [2] has the same target. In words: native MS; nanoflow electrospray of purified S72N TRAP picked by SEC (elution volume less than 14.5 ml); methods in Text S1.

“B. subtilis S72N TRAP (trp RNA-binding attenuation protein, S72N mutant) (from UniProt P19466 1-71) (natural protein)”: the stoichiometry N in test [1] and in test [2] was 12 throughout.
